Experimental data as given in patent publication US20180022794A1.

Target: endogenous active RhoA (RhoA-GTP) of HeLa S3 cells (UniProt P61586)
Assay: cell-based or functional assay

Chain of endogenous active RhoA (RhoA-GTP) of HeLa S3 cells (P61586 1-190 limits assumed): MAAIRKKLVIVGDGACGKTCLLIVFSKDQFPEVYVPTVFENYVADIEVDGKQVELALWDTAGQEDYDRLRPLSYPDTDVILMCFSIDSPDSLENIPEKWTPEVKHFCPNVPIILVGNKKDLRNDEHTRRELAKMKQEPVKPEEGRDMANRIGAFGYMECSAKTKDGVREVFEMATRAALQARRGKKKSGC

B1: F-H12 (VHH, part only; not given: Fbox domain and myc tag, not shown: small tags and cut ends)
chain, part: VQLQASGGGFVQPGGSLRLSCAASGDGSRIYAMGWFRQAPGKEREFVSAISWEQDWEHYYADSVKGRFTISRDNSKNTVYLQMNSLRAEDTATYYCAAFMTPHRNLTSMYWGQGTQVTVSS
RhoA-GTP level after 15 min of EGF treatment (GST-RBD pull down): 50%
